From US20110002927A1 (DELENEX THERAPEUTICS, published 2011)

Legend:
[1] = molecular target: T1, recombinant human TNF-alpha (rhTNF-α) (human, UniProt P01375 77-233); assay: cell-based or functional assay
[2] = molecular target: T1, recombinant human TNF-alpha (rhTNF-α); assay: method not stated (data not shown)

T1 sequence (P01375 77-233 limits assumed): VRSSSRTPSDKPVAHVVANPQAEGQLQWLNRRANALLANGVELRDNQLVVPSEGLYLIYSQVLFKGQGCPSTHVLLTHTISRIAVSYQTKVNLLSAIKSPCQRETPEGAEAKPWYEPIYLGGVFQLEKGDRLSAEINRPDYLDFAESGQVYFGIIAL

B1: ESBA105 (scFv)
scFv: DIVMTQSPSSLSASVGDRVTLTCTASQSVSNDVVWYQQRPGKAPKLLIYSAFNRYTGVPSRFSGRGYGTDFTLTISSLQPEDVAVYYCQQDYNSPRTFGQGTKLEVKRGGGGSGGGGSGGGGSSGGGSQVQLVQSGAEVKKPGASVKVSCTASGYTFTHYGMNWVRQAPGKGLEWMGWINTYTGEPTYADKFKDRFTFSLETSASTVYMELTSLTSDDTAVYYCARERGDAMDYWGQGTLVTVSS
notes: expressed in and purified from E. coli; 26 kDa; also called E105; anti-TNFalpha single-chain antibody (scFv) ESBA105
EC50 in the L929 TNF-α assay (rescue of actinomycin D sensitized mouse L929 fibroblasts from rhTNF-α induced apoptosis, XTT) [1]: 12.5 ng/mL
Kd [2]: 2.19 nM
koff [2]: 0.0126 s⁻¹
kon [2]: 5.72e+06 M⁻¹ s⁻¹
